Reference: US20130177981A1

Tests used:
Assay in all cases: cell-based or functional assay
[1] = biological target: gp41 of HIV-1 strain DJ258 (HIV-1 strain DJ258)
[2] = biological target: gp41 of HIV-1 strain CC 1/85 (HIV-1 strain CC 1/85)
[3] = biological target: gp41 of HIV-1 strain HC4 (HIV-1 strain HC4)
[4] = biological target: gp41 of HIV-1 strain NL4-3 (HIV-1 strain NL4-3)

T-20 (peptide)
Inhibition of HIV-1 infectivity, IC50 (nM), DJ258 [1]: 330 nM
Inhibition of HIV-1 infectivity, IC50 (nM), CC 1/85 [2]: 1400 nM
Inhibition of HIV-1 infectivity, IC50 (nM), HC4 [3]: 250 nM
Inhibition of HIV-1 infectivity, IC50 (nM), NL4-3 [4]: 700 nM
